These results are taken from the domain aggregation screens of Martell et al. (2025).

This series in a line: soluble fraction after stress (log2 fold change); higher = more stays soluble; pooled small domains, quantitative proteomics. The note with it: stress: 50 degC. In a few lines:
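After stress at 50°C, the amount of each protein still soluble was measured. This was done on pooled custom libraries of small protein domains, using high-throughput quantitative proteomics. The figure given is a base-two log fold change and stands for aggregation propensity, with higher values meaning more protein stays in solution.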
On to “HMNTPAENFDKAVEKYKSTNSATEKDAAFKVIEDEWIKLSDEEKKERQDEYDSIFESEGDRV”, for which the “soluble fraction (log2)” value is 0.126.
Next, “HMNTQGWEIFEGRITTADTDLNPSGWIRIDGQRIFVISDAGFIDKGKEVSILSVDGNRVLVRK”: -0.641.
For the sequence “HMNTSMIEHMDKSTFIRFVFTNPVTHDQAVAKLMEKHMWFSTEEKAEAEIDKLLNKTNSLIESGGKLTW”, the “soluble fraction (log2)” value was 0.0337.
For “HMNTTLQLDTILRLEKNAHLLENFVRAGFTDSELGKLTDADLLQIGVPKIGDRRRLLAALAERAH”, the “soluble fraction (log2)” value was -0.589.
The figure for “HMNTVSPAVSAQLRQELGGELNNANFQQLQQYLQAGQRDEAIVYLTSLGIESPRAVSIVNNAMDQIG” is 0.124.
“HMNVDIVEITKNSSPNQISKVIDIGAIQIVEDLMSFGIMKAIDTPLEDSEIEQLLEKYNLIVDLIE”: the “soluble fraction (log2)” value was -2.33.
For the sequence “HMNVDSIPGKSGIVTQGIDNLKAMGRVTVNGMEWTARSKDGSLIEEGKVVRVYGVEGVKLIVEED”, the “soluble fraction (log2)” value is -0.0306.
As to “HMNVDSLPGEKAVVIKTIDNLRGTGQAVVNGLEWSAKSKDETIIDEGKVVRIVAVEGVKLVVEEE”, the “soluble fraction (log2)” value is 0.0762.
The figure for “HMNVEALIGREGRVTDKIEANGYGRVKVDGDSWKAKSANGAEIRQNTDVRILSIDSVIITVEP” is -0.379.
Next, “HMNVESLVGKQVIVSETIDNLKATGQVKVNGLEWTARAADETDIIPQGTEVTINEVSGVKLIVSR”: 0.241; “HMNVESMVGKQGKVVVEIDNISAKGMIKVDGMEWTARSVDGEIIPKDSLVAVVSVEGVKAMVRKAE”: 0.163.
Next, “HMNVGKRLKSLREKYKFSLEEVAKKIKSSAGAISRYENNERKINSESLIRLSNLYNVSPEYILYG”: 0.0449; “HMNVKQALLELMQRKPELTGSAIARAIGYSPAVISQYLKDGYPGDVVKLTTLIGDFIRRIDEKERS”: -0.182.
With “HMNVKVYATIDGDNFKVSGLKPGSNVRVYSSNGSAVFEKKAGDSEMIIPAGAWTKGIYVISADDQSIKVT”, the “soluble fraction (log2)” value is -0.109.
As for “HMNVLGQTAIVRSLRLDATFGEVLLADGGAGLIFKARTHGDETFKKGDRVVLLEYLKDQHAYRVISETDFL”, the “soluble fraction (log2)” value is -1.94.
Next, “HMNVLLGISELSHATGVTPAQLRYWVSQGYIKNYGSNKKNKFSLETVFMVRSIKIFQNQGYTLSASAKRAA”: 0.0163; “HMNVNFVQANLANLPNIQAIYQKGNEMLNDMKRGEAREIDEAYSRVDNGVGTEKDFKVLLSFRDKIIAAMQ”: 0.362.
Consider “HMNVNSMIGKEGRVIEDIDNFNETGRIIVDGMEWTARAVNEQSITSGQKVVIREIQGVKAMVVPM”, for which the “soluble fraction (log2)” value is 0.187.
With “HMNVNTNTILKSLMETYPDSTVFKKAEIVSIANSLGFKKSDYSPLTSTDNRTDVRGQYDLSAVIIPMRESN”, the “soluble fraction (log2)” value was -0.13.
For “HMNVPYEMVTQNGEVFYKYKVQPGEGVFAVSRTFSVSVAEILRVNPEANKGLKNGQVLLIPVPKDMIA”, the “soluble fraction (log2)” value was 0.0163.
Consider “HMNVVGAKGRIIKISSSEEKMAVAEIEGHGEWNIRTNSEIELFVGKSVEVIEMKGNYLLVNQI”, for which the “soluble fraction (log2)” value was -0.0624.
On to “HMNVWESVDLRQEQHEAKRRLILKQAALLFADRGFHETTIDQIAEALNVTKPTIYYYIESKEDLLYQVA”, for which the “soluble fraction (log2)” value is -0.0821.
The figure for “HMNWQLITDPKELRELVQKTIADNEAGTSRLREGDMGPLEFLTGIIMKKTRGLADPTMVKALLKEELNI” is 0.132; for “HMNYEFLEKIGFSSNEAKVYGTLIKHKVLNGYEIAKLSGVARSLVYEVINRLVAKGAVIRIDGEPNFYKP” it is -1.8.
Next, “HMNYHDTLSYLMDAFGGADNLQKLLGVGPSALSNYRRREHLPLNQARKLSNIAPEFGFNLDPYTLKISVID”: -1.57.
For the sequence “HMNYKLESYLKKVDDQLNFIPVSDKADILSELKNTFYERLLNGQTEEEILDEMESPRELALSYMSES”, the “soluble fraction (log2)” value came out at 0.0578.
As for “HMNYTYTVPEGIRYLRADKALALAFPDHSRTALQRAFDSGLVTLRGVAIKRDQSVTALDTLEFAMPDI”, the “soluble fraction (log2)” value was -0.81.
As for “HMNYVFVLNEHGVRQTSYVVGLHADTLEKTEKLAKQTYPTSTIISGDSEMQSQFISGKAYVNGEFVDP”, the “soluble fraction (log2)” value was -0.471.
For “HMPAFWILAVLAGGRRHGYQIMREAALSSEGLVTLKPTTLYAALERLERDGAIQQDGEEIVDGRVRRYYRI”, the “soluble fraction (log2)” value was 0.259.
“HMPAKDAEFTAFVRSATPTLTRTAYLLTGDRETASDLVQEAFVRTYLAWRRVRPEEATAYTRRVLVN”: the “soluble fraction (log2)” value came to 0.0368.
In the case of “HMPAPMISIQLNGEPRNVQPGISIAALVREIGLEPAKVAVERNREIVPRSTLGDVLIEAGDQLEIVHFVG”, the “soluble fraction (log2)” value is 0.159.
Turning to “HMPAQPEPYNNLARLYSAQGKLDQAASLLRAGLYTDPAYRALFDNLTRIYAEQAARSLSAALD”, the “soluble fraction (log2)” value is -0.907.
For “HMPASDPNEKQILRFLTEHQVITRKETQALLDVSQSTAGRVLKAMVDNGQIKQLGGSRNTRYELPM”, the “soluble fraction (log2)” value was -0.183.
As for “HMPASGISSEIIYDGILIEENLRQLKKDKAWLMDQLKKKGISSVSEVFLATLNKGGSLYIDKY”, the “soluble fraction (log2)” value is -0.0117.
With “HMPASVSAIRKYLGGGSFKGVGPALAKRIVDAFGEYTIETIENDPKQLAKVKGVSEKMALEINTQ”, the “soluble fraction (log2)” value is -0.0317.
Regarding “HMPAYYQKEAVLDGRASVFAYERDPSSWYFKQLIPGTKKYRTKKIQGATTLEQAKSQALDIALGLRDEP”, the “soluble fraction (log2)” value is 0.0201.
Take “HMPDDHFIRGYVTAVLEQVLKVPSIQVEVERGVVILRGDLPGEERQELLDAVSRIHGVARVEYIPL”: the “soluble fraction (log2)” value is -0.0295.
As to “HMPDLSGEEQQIVDILAQRGNLQINTLVVETDIPVHKMNAILFELEMKGVVRVLAGGMYQLL”, the “soluble fraction (log2)” value is -0.263.
Take “HMPDPLVEIRSAVHSNYAGMIAMLGADNRVYLGREEHYSYQDGQPGQYDNRDGSLLFVSDQPDIYYFL”: the “soluble fraction (log2)” value was -1.44.
For “HMPEAITLRDLKTYSKQAASGYLDDHQLVLVEKEAHSEDVPEGQVIKQKPGAGASVKPGDKVEVTFSLGPE”, the “soluble fraction (log2)” value is 0.0136.
Turning to “HMPEKKKYGDFVSMTEEEYGKLVSEYGQEAAKRMVEILNNYKGATGKPYKSDYLAILNWVVKRIKEE”, the “soluble fraction (log2)” value was determined as 0.0441.
Next, “HMPELFLFNPDTASAATFQALGFSARQAGVLIHFREALGGRFGSVEQFSKSYVVDSATLERLRPYMVF”: -3.63; “HMPEMHIYTKEGKIHITHIDENEEIKIYNPLGQIIYTGSPQDIPVLEGKGLYIIYIGKSAVEVLES”: -1.65.
The figure for “HMPENESPEEKHARFRRFAEGLMARLDENESVRDILPELKVWLDDRELDRDDQRLARNLMLTAGKRE” is 0.0802; for “HMPEPLTARETEVLRLLSGGYSNREIAAAMFLAEGTIKNHVSAVLLKLGVRDRTRAVLRGLELGLIQ” it is -1.81.
In the case of “HMPEPPRVGETLAALRQDRALSLDELSRQAGVSKSMLSQIERNQANPTVAVVWRLANALGVPMAELLGA”, the “soluble fraction (log2)” value was -0.108.
For the sequence “HMPGDIRKAAILLMSLPREQAAQVLARLDPKQVEAVTIEIARLGTVTPDEQEQALKEFSQANPA”, the “soluble fraction (log2)” value was 0.0798.
On to “HMPGIDDAAVEHAERVLAQHIGPMARLLVRRTVPRAANLFDLHRRLGALIPESEPRTAFLSAVVT”, for which the “soluble fraction (log2)” value is 0.0708.
Turning to “HMPGLSQAEAQSLLIAYLAQQGRTLELIPLGQSGDVWRFSGRESDGTVVSFFMVSRTDGTISEVPVPP”, the “soluble fraction (log2)” value was -0.62.
On to “HMPGRLSRREVEVIELTARGLPAAEMAVRLGISANTIEFHRRRIMQKLGVANAAEMVRRATELGW”, for which the “soluble fraction (log2)” value was -2.1.
In the case of “HMPGRVITVMVNGKRVDLPFREEPYIFVDLFRYMDFDVERARGRIQLAINGKKAGYTDIIREGDSIEI”, the “soluble fraction (log2)” value is -0.562.
The figure for “HMPGTAAQARQLKAWLKENGEKPGAALPALQKAQEIYGYVPREVQQLIADALHKPLTEIYGVSTFYSQFNL” is -0.573.
Regarding “HMPGTPADQVAELQTKVGTETKTGDMITQDDVKLLQTALDPLAKMNDRIQAAKILESKGIVTSDGNLRT”, the “soluble fraction (log2)” value was 0.124.
Turning to “HMPIGENIKRLRIMHGLSQKELAQIAGVSDKAVSTWENGTKEPRMGAVQKITGYFGLKKSNLIEDNGL”, the “soluble fraction (log2)” value was -0.0331.
Consider “HMPIMDSDDKYEALGIPQEWIAVVKKAGYQTVEALKAVENPNKLHQELSVMNKKEKLGLAGLTPEMVKAWL”, for which the “soluble fraction (log2)” value came out at 0.342.
In the case of “HMPINPKVKQIYDTLKDGGADVGSEKEFNDYFFAKGKDGYNNRKEVFNTLREGGADAGKSYEEFAGWLGL”, the “soluble fraction (log2)” value worked out at 0.362.
“HMPIPIESEISRSPGQSIYAFVQQHYGRSGRSPADMRALVGLILRLNRQIRTPLLIPFGLVVVRPT”: the “soluble fraction (log2)” value is -0.0619.
Next, “HMPIRVGDAFESLAGVFPDEYNKALRKSTKKPVFFVPVKVEAGSGALRQKGKITFIVKDGRIDAIQIAL”: -1.21.
Next, “HMPISQGATVKHNANMRKGASTKYKVTGVLQEGEEVKILSQSNGWYKIQNSDNEKGWTYNTHINASDK”: 0.0951; “HMPKHFIDFSEGEVVSITDGPFKGFDGAISEIDNQKGKVKVMVSMFGRDTSVELDALQVKKV”: -0.107; “HMPKITTIHIDPEKISKVIGPGGKTVKKIIEETGAKIDIEDTGKIFIAAVNTEAANKAIDMINGIVA”: 0.103.
On to “HMPKLPIIYVLDGHVNKNALTTSGKNKVWIEHELKKHHINSIKDVLIAMTDTEGKFYYQLYD”, for which the “soluble fraction (log2)” value is -1.44.
With “HMPKLSNNHMAVWQAIRSRTAKGEPSTRAVIRDDLKAAGMDTSKHFSRWLTKLIDLGMVVKDGENLSIR”, the “soluble fraction (log2)” value was -0.16.
As for “HMPKMISPAQIKAIGAKTNNIAKASGVEQAQVYQSAVAHLGINNKSTKELTSQEASKVIEYLSTL”, the “soluble fraction (log2)” value was found to be 0.0861.
For the sequence “HMPKPMKATKITLQQEPRIRVDFTYDPLKVQQIKTISGARWSKSLKAWHIPYTKEAFNQLKKLFPNVEIEV”, the “soluble fraction (log2)” value was -0.166.
For the sequence “HMPKSVRQSFVYSPMYRDVEYLADFLRNNNKDDSSVSASGDKLVYYGTADEIARVKSVLKGVDV”, the “soluble fraction (log2)” value was -0.026.
For “HMPLIPIAIELARHALPSLIGAIAGDKSEKVAKEVVDAALKTTGKTTPDEALHALQADPQLAHEYRLSLL”, the “soluble fraction (log2)” value was 0.287.
“HMPLKLIDVYLGRHGKKRYDVFKETGLSQQTLASANGKPAAALTGRILQAIGRTVGETPGRVLDEMLMIEQ”: the “soluble fraction (log2)” value was -0.691.
Take “HMPLLADLPNLLRKVLKQHPGRVVDVDLERGRQGREIYHVRVLQENGQVRGLFVDASTGELVS”: the “soluble fraction (log2)” value is -0.224.
